From US20220153832A1 (PIONYR IMMUNOTHERAPEUTICS, published 2022)

T1: Human Macrophage Receptor with Collagenous Structure (MARCO), full length, on cells (human, UniProt Q9UEW3 1-520)
T1 construct: the cell type is named under assay; also called huMARCO; HuMARCO
T1 sequence: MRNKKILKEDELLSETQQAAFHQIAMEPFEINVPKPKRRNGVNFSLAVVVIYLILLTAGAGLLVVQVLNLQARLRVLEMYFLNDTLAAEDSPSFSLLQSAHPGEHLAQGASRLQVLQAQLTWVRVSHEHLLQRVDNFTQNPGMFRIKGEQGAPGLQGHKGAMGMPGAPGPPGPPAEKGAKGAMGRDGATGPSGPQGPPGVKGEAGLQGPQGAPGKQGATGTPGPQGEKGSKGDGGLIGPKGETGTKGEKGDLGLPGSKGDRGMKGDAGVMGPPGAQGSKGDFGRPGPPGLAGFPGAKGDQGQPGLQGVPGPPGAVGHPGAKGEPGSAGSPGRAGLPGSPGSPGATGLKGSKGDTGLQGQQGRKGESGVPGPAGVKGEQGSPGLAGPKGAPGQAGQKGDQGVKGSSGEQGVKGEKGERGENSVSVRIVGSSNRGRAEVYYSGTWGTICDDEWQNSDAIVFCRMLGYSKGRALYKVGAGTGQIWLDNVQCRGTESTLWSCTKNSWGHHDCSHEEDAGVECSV

T2: N-terminally polyhistidine tagged human MARCO ECD (147-520), recombinant (human, UniProt Q9UEW3 147-520)
T2 construct: also called PI-RG-3000; recombinant human MARCO; not shown: N-terminal polyhistidine tag
T2 sequence: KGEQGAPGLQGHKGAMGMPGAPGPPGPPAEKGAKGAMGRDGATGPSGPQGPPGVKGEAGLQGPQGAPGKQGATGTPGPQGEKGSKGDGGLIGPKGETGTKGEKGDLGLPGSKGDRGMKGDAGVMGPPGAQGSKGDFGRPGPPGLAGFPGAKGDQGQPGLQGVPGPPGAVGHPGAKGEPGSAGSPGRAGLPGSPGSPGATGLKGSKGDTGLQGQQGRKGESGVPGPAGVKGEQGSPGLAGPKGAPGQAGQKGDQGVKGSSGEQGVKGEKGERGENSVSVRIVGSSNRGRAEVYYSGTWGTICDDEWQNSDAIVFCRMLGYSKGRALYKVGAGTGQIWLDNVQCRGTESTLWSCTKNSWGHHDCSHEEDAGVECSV

T3: human MARCO (R&D biosystems), recombinant, coated in the LDL competition assay (human, UniProt Q9UEW3 70-520, limits assumed)
T3 construct: Bought protein
T3 sequence (looked up): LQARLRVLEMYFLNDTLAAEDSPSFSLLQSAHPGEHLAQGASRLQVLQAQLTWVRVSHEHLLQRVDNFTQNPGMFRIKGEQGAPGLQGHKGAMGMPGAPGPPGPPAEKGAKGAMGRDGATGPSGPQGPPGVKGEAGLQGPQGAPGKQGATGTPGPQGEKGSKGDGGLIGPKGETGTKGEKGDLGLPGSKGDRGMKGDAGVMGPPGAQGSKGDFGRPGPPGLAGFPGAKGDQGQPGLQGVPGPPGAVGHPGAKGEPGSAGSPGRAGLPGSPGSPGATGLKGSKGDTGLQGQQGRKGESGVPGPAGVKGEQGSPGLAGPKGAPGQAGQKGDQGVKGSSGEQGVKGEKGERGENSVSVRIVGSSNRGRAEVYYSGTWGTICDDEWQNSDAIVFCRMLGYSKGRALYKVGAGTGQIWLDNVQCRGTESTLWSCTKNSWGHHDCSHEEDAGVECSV


How the values were obtained:
[1] = target: T1, Human Macrophage Receptor with …; test: competition with AF488 E. coli binding to 293T cells expressing MARCO, flow cytometry
Protocol: Zombie NIR viability dye (BioLegend) was prepared by diluting the stock 1000-fold in D-PBS and added to the cells. The cells were incubated with the dye for 10 min at RT in the dark. The reaction was quenched by adding 1 m of 4× Staining buffer (2% FBS in DBPS containing Ca²⁺), followed by centrifugation at 400×g for 5 min at 4° C. Cells were then plated in V-shaped 96 well plates at a density of 100,000 cells. A488-fluorescently labeled bacteria (E. coli from Invitrogen) was added at 10 μg/ml with the anti-human or anti-mouse antibodies of interest for a 30 min incubation at 37 C. Plates were then washed twice followed by resuspension in 100 ul of staining buffer for acquisition on the flow cytometer (Attune NxT, Life Technologies). Flow cytometry data were analyzed using FlowJo software (version 10.6.1) and data were processed and further analyzed in Microsoft Excel and GraphPad Prism software (version 8).
The newly generated rat hybridoma anti-human MARCO antibodies were characterized as previously described. Neither antibody bound to MSR1. Binding kinetics were determined via Multi Cycle Kinetics analysis using the huMARCO antigen as previously described.

[2] = target: T2, N-terminally polyhistidine tagged human …; test: ELISA on recombinant human MARCO, 0 mM EDTA
Protocol: After the plates were incubated at room temperature for 1 hour or 4° C. overnight, the plates were wash 3 times with ELISA wash buffer (PBS/0.05% TWEEN-20), then hybridoma supernatant (1:5 dilution) or purified antibody (1 ug) was diluted in DPBS/Ca2+/2% FBS, DPBS without Ca2+/2 mM EDTA/2% FBS, DPBS without Ca2+/10 mM EDTA/2% FBS, and DPBS without Ca2+/50 mM EDTA/2% FBS. Plates again were incubated at room temperature for 1 hour.

[3] = target: T3, human MARCO (R&D biosystems), …; test: LDL competition on coated human MARCO (MSD), competitor biotinylated hLDL
Protocol: A high-binding, 96-well MSD plate was coated with 4 μg/ml mouse MARCO or 4 μg/ml human MARCO (R&D biosystems). After the plate was blocked with PBST and 5% BSA for an hour, titrated anti-mouse or anti-human MARCO antibodies were added to the plate and incubated for 30 minutes. Biotinylated hLDL (860 pM or 2 μg/ml) were added to the antibody, and the antibody/LDL mixture was incubated for an hour to allow the mixture to reach binding equilibrium. The plates were washed and bound biotinylated LDL was detected with Sulfo-tagged streptavidin that generates an electrocheminlumenscent signal when read buffer is added and electricity is applied to the electrodes in the MSD plate. IC50's were calculated using a 4-parameter curve fit in GraphPad Prism software.

Binder	EC50 [1] [nM]	ELISA signal (A450) [2]	EC50 [3] [nM]
PI-HX-3031 (antibody, Parental rat hybridoma, rat IgG2a) heavy: QVQLKESGPGLVQPSQTLSLTCTVSGFSLTSYHVSWVRQPPGKGLEWMGAIWTGGSIAYNSLLKSRLSISRDTSKSQVFLKMNSLQTEDTATYYCARDLSDYYSSYTSFDYWGQGVMVTVSTAETTAPSVYPLAPGTALKSNSMVTLGCLVKGYFPEPVTVTWNSGALSSGVHTFPAVLQSGLYTLTSSVTVPSSTWSSQAVTCNVAHPASSTKVDKKIVPRECNPCGCTGSEVSSVFIFPPKTKDVLTITLTPKVTCVVVDISQNDPEVRFSWFIDDVEVHTAQTHAPEKQSNSTLRSVSELPIVHRDWLNGKTFKCKVNSGAFPAPIEKSISKPEGTPRGPQVYTMAPPKEEMTQSQVSITCMVKGFYPPDIYTEWKMNGQPQENYKNTPPTMDTDGSYFLYSKLNVKKETWQQGNTFTCSVLHEGLHNHHTEKSLSHSP light: DIQMTQSPASLSTSLGETVSIECLASEGISNDLAWYQQKSGKSPQLLIYAASRLQDGVPSRFSGSGSGTRYSLKISGMQPEDEADYFCQQSYKYPLTFGSGTKLEIKRADAAPTVSIFPPSTEQLATGGASVVCLMNNFYPRDISVKWKIDGTERRDGVLDSVTDQDSKDSTYSMSSTLSLTKADYESHNLYTCEVVHKTSSSPVVKSFNRNEC	0.18	1.37	–
PI-HX-3043 (antibody, rat IgG2a, Parental rat hybridoma, rat IgG2a) heavy: QVNLLQSRAALVKPGASVKLSCKASGYTFTDYYLHWVKQSHAKSLEWIGYINPNNAYTSYNEKFKSKATLTVDKSTNTAYMELSRLTSADSATYYCARDTTDYYNLHFAYWGQGTLVTVSSAETTAPSVYPLAPGTALKSNSMVTLGCLVKGYFPEPVTVTWNSGALSSGVHTFPAVLQSGLYTLTSSVTVPSSTWSSQAVTCNVAHPASSTKVDKKIVPRECNPCGCTGSEVSSVFIFPPKTKDVLTITLTPKVTCVVVDISQNDPEVRFSWFIDDVEVHTAQTHAPEKQSNSTLRSVSELPIVHRDWLNGKTFKCKVNSGAFPAPIEKSISKPEGTPRGPQVYTMAPPKEEMTQSQVSITCMVKGFYPPDIYTEWKMNGQPQENYKNTPPTMDTDGSYFLYSKLNVKKETWQQGNTFTCSVLHEGLHNHHTEKSLSHSP light: DIQMTQSPASLSASLGETVSIECLTSEGISNDLAWYQQKSGKSPQLLIYDASRLEDGVPSRFSGSGSGTRYSLKISGMQTEDEADYFCQQSYKYPLTFGSGTKLEIKRADAAPTVSIFPPSTEQLATGGASVVCLMNNFYPRDISVKWKIDGTERRDGVLDSVTDQDSKDSTYSMSSTLSLTKADYESHNLYTCEVVHKTSSSPVVKSFNRNEC	–	1.2	3.4
PI-HX-3061 (antibody, rat IgG2a, Parental rat hybridoma, rat IgG2a; cross reactive with human and mouse MARCO) heavy: EVQLVESGGGLVQPGSSLKLSCVASKFTFSNYGMNWIRQAPKKGLEWIALIYYNSNNKYYADSVKGRFTISRDNSKNTLYLEMNSLRSEDTAMYYCAKSLTGGSDYFDSWGQGVMVTVSSAETTAPSVYPLAPGTALKSNSMVTLGCLVKGYFPEPVTVTWNSGALSSGVHTFPAVLQSGLYTLTSSVTVPSSTWPSQTVTCNVAHPASSTKVDKKIVPRNCGGDCKPCICTGSEVSSVFIFPPKPKDVLTITLTPKVTCVVVDISQDDPEVHFSWFVDDVEVHTAQTRPPEEQFNSTFRSVSELPILHQDWLNGRTFRCKVTSAAFPSPIEKTISKPEGRTQVPHVYTMSPTKEEMTQNEVSITCMVKGFYPPDIYVEWQMNGQPQENYKNTPPTMDTDGSYFLYSKLNVKKEKWQQGNTFTCSVLHEGLHNHHTEKSLSHSP light: DVQMTQSPSYLAASPGESVSISCKASKSIGTFLAWYQEKPEKTNKLLIYSGSTLQSGTPSRFSGSGSGTDFTLTIRNLEPEDFAVYYCQQHDEYPFTFGSGTKLEIKRADAAPTVSIFPPSTEQLATGGASVVCLMNNFYPRDISVKWKIDGTERRDGVLDSVTDQDSKDSTYSMSSTLSLTKADYESHNLYTCEVVHKTSSSPVVKSFNRNEC	0.52	–	8.2
